Publication PMC3810134, “Substrate and Inhibitor Specificity of the Type II p21-Activated Kinase, PAK6” (PLoS ONE, 2013)
Numbering of substitutions follows the chain as printed. Numbers in names are those of the source.

B1: full-length WT GFP-PAK6: full-length wild-type PAK6 fused to GFP, transfected in HEK293 cells (protein, UniProt Q9NQU5 1-681, looked up)
chain: MFRKKKKKRPEISAPQNFQHRVHTSFDPKEGKFVGLPPQWQNILDTLRRPKPVVDPSRITRVQLQPMKTVVRGSAMPVDGYISGLLNDIQKLSVISSNTLRGRSPTSRRRAQSLGLLGDEHWATDPDMYLQSPQSERTDPHGLYLSCNGGTPAGHKQMPWPEPQSPRVLPNGLAAKAQSLGPAEFQGASQRCLQLGACLQSSPPGASPPTGTNRHGMKAAKHGSEEARPQSCLVGSATGRPGGEGSPSPKTRESSLKRRLFRSMFLSTAATAPPSSSKPGPPPQSKPNSSFRPPQKDNPPSLVAKAQSLPSDQPVGTFSPLTTSDTSSPQKSLRTAPATGQLPGRSSPAGSPRTWHAQISTSNLYLPQDPTVAKGALAGEDTGVVTHEQFKAALRMVVDQGDPRLLLDSYVKIGEGSTGIVCLAREKHSGRQVAVKMMDLRKQQRRELLFNEVVIMRDYQHFNVVEMYKSYLVGEELWVLMEFLQGGALTDIVSQVRLNEEQIATVCEAVLQALAYLHAQGVIHRDIKSDSILLTLDGRVKLSDFGFCAQISKDVPKRKSLVGTPYWMAPEVISRSLYATEVDIWSLGIMVIEMVDGEPPYFSDSPVQAMKRLRDSPPPKLKNSHKVSPVLRDFLERMLVRDPQERATAQELLDHPFLLQTGLPECLVPLIQLYRKQTSTC
modifications: full-length GFP fusion
notes: full-length wild-type PAK6 fused to GFP, transfected in HEK293 cells
B2: P52L mutant: full-length GFP-PAK6 with melanoma-associated P52L mutation, transfected in HEK293 cells (protein, UniProt Q9NQU5 1-681, looked up, variant P52L)
chain: B1 chain with P52L
modifications: full-length GFP fusion
notes: full-length GFP-PAK6 with melanoma-associated P52L mutation, transfected in HEK293 cells

System: PACSIN1 phosphorylation (Ser343) in HEK293 cells
Assay: Cell-based assay: phospho-PACSIN1 on co-transfection with PAK6 constructs in HEK293 cells
Details: co-transfection with myc-PACSIN1, 24 h
Method: HEK293 cells were grown at 37°C with 5% CO2 in Dulbecco’s modified Eagle’s medium (DMEM) supplemented with 10% fetal bovine serum and penicillin/streptomycin. Cells were transfected with pCMV6-myc-PACSIN1 (kindly provided by J. Peterson) and pEGFP-C2, pEGFP-PAK6-WT, pEGFP-PAK6-P52L, pEGFP-PAK6-N (N-terminus, residues 1–382) or pEGFP-PAK6-CAT (catalytic domain, residues 383–674) using polyethylenimine (PEI, Polysciences Inc.). Twenty four hours later, cells were trypsinized, quenched with complete medium, washed with PBS and lysed in buffer containing 20 mM Tris (pH 8.0), 200 mM NaCl, 1 mM EDTA, 1% Triton X-100, Complete Protease Inhibitor Cocktail (Roche), and phosphatase inhibitors (1 mM Na3VO4, 10 mM NaF, 10 mM β-glycerol phosphate) for 10 minutes at 4°C. Samples were resolved by SDS-PAGE and were assessed by immunoblotting using the following antibodies: goat anti-GFP (1∶1000; Rockland), mouse anti-myc (9E10, 1∶1000; Santa Cruz Biotechnology), rabbit anti-phospho-PACSIN1 (1∶2000; gift of J. Peterson), mouse anti-vinculin (1∶10,000; Sigma), anti-goat or anti-rabbit IgG AlexaFluor680 (1∶5000, Invitrogen), anti-mouse IgG IRDye800 (1∶5000, Li-Cor). Bands visualized using a Li-Cor Oddysey imager and were quantified using ImageJ. A ratio of phospho-PACSIN1 to total PACSIN1 was calculated by dividing the total phospho-PACSIN1 signal by the myc signal.

Molecule	phosphorylation of PACSIN1 at Ser343 compared to GFP alone or GFP-PAK6 N-terminus (phospho-PACSIN1 immunoblot)	phosphorylation of PACSIN1 compared to wild-type PAK6 (phospho-PACSIN1/total PACSIN1 (myc), n = 4, Student's t-test)
B1	increased phosphorylation of PACSIN1 at Ser343	–
B2	–	significantly increased phosphorylation
